US20260042865A1 (Amgen, published 2026)

T1: Mouse ASGR1 protein (R&D Systems cat #2755-AS/CF) (mouse, UniProt P34927 61-284, limits assumed)
T1 construct: Bought protein; also called muASGR1
T1 sequence (looked up): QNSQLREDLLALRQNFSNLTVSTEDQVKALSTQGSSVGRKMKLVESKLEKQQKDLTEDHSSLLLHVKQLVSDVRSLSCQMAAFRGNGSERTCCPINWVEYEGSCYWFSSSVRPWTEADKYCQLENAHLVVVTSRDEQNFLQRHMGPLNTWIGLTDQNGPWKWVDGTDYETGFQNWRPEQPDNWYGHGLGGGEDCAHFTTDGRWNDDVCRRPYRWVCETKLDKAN

T2: Human ASGR1 protein (R&D Systems cat #4394-AS/CF) (human, UniProt P07306 62-291)
T2 construct: Bought protein; also called huASGR1
T2 sequence (looked up): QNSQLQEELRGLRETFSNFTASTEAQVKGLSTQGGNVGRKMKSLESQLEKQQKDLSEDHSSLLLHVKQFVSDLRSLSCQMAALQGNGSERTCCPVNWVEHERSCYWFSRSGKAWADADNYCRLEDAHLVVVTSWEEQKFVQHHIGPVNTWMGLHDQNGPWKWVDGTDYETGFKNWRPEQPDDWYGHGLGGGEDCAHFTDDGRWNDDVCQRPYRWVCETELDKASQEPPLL


Assays:
[1] = molecular target: T1, Mouse ASGR1 protein (R&D Systems cat …); experiment: SPR (BIAcore 3000), mouse ASGR1 immobilized, antibody analyte, pH 6, 2 uM CaCl2
Procedure: (§1) Antibodies binding to ASGR1 in a pH/Ca2+-dependent manner were screened by employing surface plasmon resonance. Antibodies were screened either at pH 7.4 with 2 mM CaCl2 or at pH 6.0 with 2 μM CaCl2 to analyze the binding to ASGR1. KD values were determined by immobilizing receptor on the chip and antibodies as analytes.
(§2) Equilibrium binding affinities of the interaction between mouse ASGR1 and anti-ASGR1 antibodies were determined using BIAcore 3000. Mouse ASGR1 protein was obtained from R&D-systems (cat #2755-AS/CF) and immobilized on CM5 chips using amine coupling chemistry to a density of ˜1500 RU. On each CM5 chip a reference flow cell is used which was coupled with coupling buffer only. Antibodies were injected over immobilized ASGR1 at a concentration range of 1000 nM-0.2 nM, with a two-fold serial dilution. To determine pH/Ca-sensitive binding, runs were performed using phosphate buffered saline (PBS) with 0.01% (v/v) Tween20 and 0.05% azide with either pH 7.4/2 mM calcium chloride or pH 6.0/2 μM calcium chloride. The chip was regenerated using 0.15 M NaCl, 0.1 M glycine pH 1.5 buffer between each injection cycles. Equilibrium dissociation constants were determined using 1:1 interaction model using BIAevaluation.

[2] = molecular target: T1, Mouse ASGR1 protein (R&D Systems cat …); experiment: SPR (BIAcore 3000), mouse ASGR1 immobilized, antibody analyte, pH 7.4, 2 mM CaCl2
Procedure: as §1, §2

[3] = molecular target: T2, Human ASGR1 protein (R&D Systems cat …); experiment: SPR (BIAcore 3000), human ASGR1 immobilized, pH 7.4 with 2 mM Ca2+
Procedure: (§3) The binding of anti-ASGR1 antibodies binding ASGR1 in a pH/Ca2+ dependent or independent manner was assessed by BIAcore. Equilibrium binding affinities of the interaction between (i) mouse or human ASGR1 and anti-ASGR1 antibodies; and (ii) mouse or human ASGR1 and bispecific scFv molecules of the present inventions were determined using BIAcore 3000. Mouse and human ASGR1 proteins were obtained from R&D-systems (cat #2755-AS/CF and 4394-AS/CF, respectively) and immobilized on CM5 chips using amine coupling chemistry to a density of ˜1500 RU. On each CM5 chip a reference flow cell is used which was coupled with coupling buffer only. Antibodies were injected over immobilized ASGR1 at a concentration range of 1000 nM-0.2 nM, with a two-fold serial dilution. To determine pH/Ca-sensitive binding, runs were performed using phosphate buffered saline (PBS) with 0.01% (v/v) Tween20 and 0.05% azide with either pH 7.4/2 mM calcium chloride or pH 6.0/2 μM calcium chloride. The chip was regenerated using 0.15 M NaCl, 0.1 M glycine pH 1.5 buffer between each injection cycles. Equilibrium dissociation constants were determined using 1:1 interaction model using BIAevaluation.

[4] = molecular target: T1, Mouse ASGR1 protein (R&D Systems cat …); experiment: SPR (BIAcore 3000), mouse ASGR1 immobilized, antibody analyte, pH 7.4, 2 mM CaCl2; pH 7.4, 2 mM CaCl2; Table 1 experiment
[5] = molecular target: T1, Mouse ASGR1 protein (R&D Systems cat …); experiment: SPR (BIAcore 3000), mouse ASGR1 immobilized, pH 7.4 with 2 mM Ca2+; pH 7.4 with 2 mM Ca2+; Table 3 experiment (comparison with bispecific scFv)
Procedure: as §3

[6] = molecular target: T1, Mouse ASGR1 protein (R&D Systems cat …); experiment: SPR (BIAcore 3000), mouse ASGR1 immobilized, pH 7.4 with 2 mM Ca2+
Procedure: as §3

Kd [1] [nM]	Kd [2] [nM]	Kd [3] [nM]	Kd [4] [nM]	Kd [5] [nM]	Kd [6] [nM]	Binder
5.5	6	–	–	–	–	Non-catabolic anti-ASGR1 antibody (antibody, human IgG1, kappa, N297G, V domains shown, also called Non-CAT-WT; non-CAT mAb) VH: EVQLVESGGGLVQPGRSLKLSCAASGFTFSDYNMAWVRQAPKKGLEWVATIIYDGGSTYYRHSVKGRFTISRDNAKSTHSLQMDSLRSEDTATYYCARQTYFGSRDYFDYWGQGVMVTVSS VL: DIQMTQSPTSLSASLGETVSIECLTSEDIYNNLAWYQQKPGKSPQLLISYASNFQDGVPSRFSGSGSGTQYSLKINSLESEDAATYFCLQDSEYPPTFGGGTKLELKR
–	–	4	20	12.1	–	Catabolic anti-ASGR1 antibody (antibody, human IgG1, kappa, N297G, V domains shown, also called CAT-WT; CAT mAb) VH: QVQLVESGGGVVQPGRSLRLSCAASGFTFSSYGMHWVRQAPGKGLEWVAVIWYDGSNKYYADSVKGRFTISRDNSKNTLYLQMNSLRAEDTAVYYCARDSSPYGMDVWGQGTTVTVSS VL: DIQMTQSPSSVSASVGDRVTITCRASQGISSWLAWYQQKPGKAPKLLIYGASSLQSGVPSRFSASGSGTDFTLTISSLQPEDFATYYCQQSDSFPRTFGQGTKVEIKR
–	–	23	–	–	78.3	Catabolic bispecific scFv molecule (binds ASGR1 in a catabolic manner and Ig in a non-catabolic manner) (bispecific antibody, Single chain: anti-IgG scFv, SG4S linker, catabolic anti-ASGR1 scFv, C-terminal 6xHis; also called CAT bispecific scFv molecule; CAT-bispecific scFv molecule) scFv: ELQLQQSGAELVRPGASVKLSCTTSGFNVKDTYIHWVRQRPEQGLEWIGRIDPANGNTKYDPKFQDRATITTDTSSITAYLQLSSLTSEDTAVYYCARNYGSNYDPMDYWGQGTSLTVSSGGGGSGGGGSGGGGSDILLTQSPAILSVSPGERVSFSCRASQNIDTNIHWYQRRTNDSPRLLIKYASESISGIPSRFSGSGSGTDFTLSINSVESEDIADYYCQQSDTWPWTFGGGTKLEIKRSGGGGSQVQLVESGGGVVQPGRSLRLSCAASGFTFSSYGMHWVRQAPGKGLEWVAVIWYDGSNKYYADSVKGRFTISRDNSKNTLYLQMNSLRAEDTAVYYCARDSSPYGMDVWGQGTTVTVSSGGGGSGGGGSGGGGSDIQMTQSPSSVSASVGDRVTITCRASQGISSWLAWYQQKPGKAPKLLIYGASSLQSGVPSRFSASGSGTDFTLTISSLQPEDFATYYCQQSDSFPRTFGQGTKVEIKRHHHHHH
